Source: publication PMC11393077
pKd: −log10 of the molar value.

Target: CTD peptide containing two heptad repeats with one Ser5 phosphorylation site
Assay: fluorescence polarisation

pKd: 4.68
Substance: Human prolyl isomerase 1 (PIN1) (from UniProt Q13526 1-163) (enzyme)
